Experimental data: patent US8034783B2, “Prodomain modulators of ADAM 10” (Biozyme, Inc., priority 2006, dated 2011)

What was measured:
[1] = target: T1, ADAM 10 (human) Cat/Dis (Homo sapiens, UniProt O14672); assay: Inhibition assay with ADAM10 catalytic/disintegrin construct, fluorescent substrate; format: biochemical; conditions: room temperature, 10 μM fluorescent substrate; read-out: inhibition constant (Ki), ADAM 10 (human) Cat/Dis
T1 construct: containing the catalytic/disintegrin domains; purchased R & D Systems (Minneapolis, Minn., USA)
T1 sequence (O14672 214-672 limits assumed): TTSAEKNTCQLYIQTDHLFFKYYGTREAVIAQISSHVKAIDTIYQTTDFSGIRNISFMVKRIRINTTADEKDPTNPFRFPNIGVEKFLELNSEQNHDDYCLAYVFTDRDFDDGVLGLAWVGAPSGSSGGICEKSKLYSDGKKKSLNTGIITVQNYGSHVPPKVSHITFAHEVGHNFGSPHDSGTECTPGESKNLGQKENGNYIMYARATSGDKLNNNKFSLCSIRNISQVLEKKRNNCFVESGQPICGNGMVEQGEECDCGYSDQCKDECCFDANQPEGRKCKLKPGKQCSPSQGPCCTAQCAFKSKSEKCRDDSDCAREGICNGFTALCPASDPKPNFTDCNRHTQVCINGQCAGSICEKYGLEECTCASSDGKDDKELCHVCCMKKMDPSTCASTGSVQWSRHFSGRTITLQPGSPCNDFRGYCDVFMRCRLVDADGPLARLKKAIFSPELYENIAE
Experimental: Inhibition assays with TACE and ADAM 10. Activity of TACE catalytic/disintegrin, TACE catalytic, or ADAM10 catalytic/disintegrin constructs was monitored at 3 minute intervals using the fluorescent substrate, Dabcyl-LAQAHomoPheRSC(Fluorescein)-NH2 (SEQ ID NO 17) with excitation 485 nm and emission 530 nm. The substrate was diluted from a 10 mM stock in DMSO to 10 μM in assay buffer containing 20 mM Tris, pH 8.0, and 0.0006% Brij-35. Reactions were run in a 96-well black-coated plate with either ADAM10 prodomain (10 nM-1.0 μM) alone or with enzyme. Concentrations of enzyme ranged from 0.5-2.0 nM for TACE and 5-15 nM for ADAM10. For assays with TACE and ADAM8 prodomain, the range of concentrations varied from 1-4.7 μM.
Calculation of inhibition constants. The amount of activity was calculated by subtracting the ADAM 10 prodomain control from the ADAM 10 prodomain with enzyme. All inhibition assays were performed at room temperature and the data fit to the following equation using Sigma Plot software:
[formula] where If is fractional inhibition, I is the inhibitor concentration and Ki is the inhibition constant.
Wild type ADAM 10 prodomain (23-213) was tested to determine the mode of inhibition of ADAM 10 protein. ADAM 10 protein was diluted 1:100 in buffer 25 mM Tris pH 8, 0.0006% Brij-35 and then 10 μl was added to 88 μl of substrate (20-100 μM), Dabcyl-LAQAHomoPheRSC(Fluorescein)-NH2 with excitation 485 nm and emission 530 nm. Prodomain, 2 μl, in 25 mM Tris, pH 8, 100 mM NaCl, 10% glycerol, 0.1% mercaptoethanol, and 50 μM CaCl2 was added to substrate before addition of enzyme. The final concentration of prodomain ranged from 17-170 nM. The fluorescence vs time was plotted, and slopes were taken from straight line fits of initial velocities. The reciprocal of the velocities was plotted vs the reciprocal of substrate squared since the normal Lineweaver Burke plot gave curved lines. The initial velocities vs substrate concentrations were fit as a family of curves to several allosteric models.

[2] = target: T2, ADAM 8 (mouse) catalytic domain (Mus musculus, UniProt Q05910); assay: Inhibition assay with ADAM 8 catalytic domain; format: biochemical; conditions: fluorescamine assay; read-out: inhibition constant, ADAM 8 (mouse)
T2 construct: The ADAM 8 catalytic domain was expressed and purified from E. coli as described (22); made in house; host or cells: E. coli
T2 sequence (Q05910 196-395 limits assumed): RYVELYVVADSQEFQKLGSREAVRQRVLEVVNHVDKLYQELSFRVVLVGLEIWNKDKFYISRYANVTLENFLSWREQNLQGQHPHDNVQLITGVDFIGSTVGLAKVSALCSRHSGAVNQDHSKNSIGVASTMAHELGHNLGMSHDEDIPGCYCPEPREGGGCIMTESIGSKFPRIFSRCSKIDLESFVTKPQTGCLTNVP
Experimental: Inhibition assays with ADAM 8. The ADAM 8 catalytic domain was expressed and purified from E. coli as described (22). A substrate based on the L-selectin cleavage site, Dnp-INorIeuQKLDKSFSMIKE-NH2 (SEQ ID NO 20), was used to monitor enzyme activity with a fluorescamine assay. From a concentrated 50 mM solution in DMSO, the substrate was diluted 1:500 in 25 mM HEPES, pH 8.0, 0.0006% Brij-35. To 100 μl of diluted substrate was added either 5 μl of buffer (Tris, pH 8.0, 150 mM KCl) or 5 μl of ADAM10 prodomain (1-10 μM). Zero time points were taken by diluting 12.5 μl of the reaction mixture into 100 μl of fluorescamine buffer (50 mM HEPES, pH 8.0, 0.2 M NaCl, 0.01 M CaCl2, 0.01% Brij-35) in a 96-well black-coated plate. Before measuring fluorescence, 3 μl of a 1% solution of fluorescamine in DMSO was added to each well. The plate was allowed to incubate for 10 min in the dark before measuring fluorescence (excitation wavelength at 390 nm, emission wavelength at 485 nm). For assays with TACE and ADAM8 prodomains, a fluorescent substrate was used to monitor activity at concentrations of prodomains ranging from 1-4.7 μM.
Calculation of inhibition constants. The amount of activity was calculated by subtracting the ADAM 10 prodomain control from the ADAM 10 prodomain with enzyme. […]

[3] = tested on: CD23 shedding in U937 cells; assay: CD23 release from U937 cells, soluble CD23 ELISA; format: cell-based; conditions: 150-600 nM, IL-4, 24 hr, FIG. 2B
Experimental: ADAM 10 prodomains were also tested in assays to determine if ADAM 10 protein functions as a CD23 sheddase. Cells (100,000 per well) were seeded in round-bottomed 96-well plates (Sarstedt, Newton, N.C.) in 0.2 ml of media supplemented with IL-4 with inhibitors (A10 23-215 150-600 nM, GM6001 10-50 μM, TAPI-2 10-50 μM, or TIMPs 250 nM) or vehicle controls (A10 23-215 buffer: 25 mM NaH2PO4 pH 7.0, 125 mM KCl, 75 mM NaCl 20% glycerol, PBS, or dimethyl sulfoxide). Cells were cultured for 24 hr. The conditioned medium was harvested by centrifugation (2000×g, 15 min). The conditioned medium was assayed by ELISA for soluble CD23 according to the manufacturers' instructions (BD Biosciences, Invitrogen).

B1: C173S ProADAM 10 23-213 (C-terminal His tag): mouse ADAM 10 prodomain 23-213 with cysteine 173 mutated to serine, C-terminal His tag (protein, UniProt O35598 23-213, looked up, variant C173S)
chain: NPLNKYIRHYEGLSYNVDSLHQKHQRAKRAVSHEDQFLLLDFHAHGRQFNLRMKRDTSLFSDEFKVETSNKVLDYDTSHIYTGHIYGEEGSFSHGSVIDGRFEGFIKTRGGTFYIEPAERYIKDRILPFHSVIYHEDDINYPHKYGPQGGSADHSVFERMRKYQMTGVEEGARAHPEKHAASSGPELLRKK
modifications: pro-form C-terminal His tag
notes: mouse ADAM 10 prodomain 23-213 with cysteine 173 mutated to serine, C-terminal His tag
Ki [1]: 36 ± 9 nM | Ki [2]: > 10000 nM | inhibition of CD23 shedding, U937 cells [3]: about 30%
